For orientation: Kd means the constant that tells how readily two partners part at equilibrium. Read a high Kd as a looser complex.

For experiment [1], the target named is T1, human serum albumin (human, UniProt P02768 25-609).
T1 construct: also called HSA
The experiment in a line: SPR, single cycle kinetics, pH 5.5. (In general: SPR reads the build-up and loss of mass on a sensor chip optically.)

Experiment [2] concerns the target T2, rhesus serum albumin (rhesus, UniProt Q28522 17-600).
T2 construct: also called RhSA
The experiment in a line: SPR, single cycle kinetics, pH 5.5.

Experiment [3] deals with T1, human serum albumin. The experiment in a line: SPR, single cycle kinetics, pH 7.4.
In experiment [4] the target is T2, rhesus serum albumin. The experiment in a line: SPR, single cycle kinetics, pH 7.4.
Experiment [5] addresses T3, rat serum albumin (rat, UniProt P02770 25-608).
T3 construct: also called RSA
The experiment in a line: SPR, single cycle kinetics, pH 7.4.

Experiment [6] has as its target T3, rat serum albumin. The experiment in a line: SPR, single cycle kinetics, pH 5.5.

Residue numbers refer to the chain shown, from its start.

B1: Rh34-H2 (VHH)
VHH: EVQLVESGGGLVQPGGSLRLSCAASGRTISLYAVGWFRQAPGKEREFVSAISWTDSSTYYADSVKGRFTISRDNSKNTLYLQMNSLRAEDTAVYYCAADVSIRGLQKYEYDYWGQGTLVTVS
For the molecule B1, the Kd with human serum albumin [1] was 2.32 µM; in the experiment with rhesus serum albumin [2], 3.08 µM; with human serum albumin [3], 1.33 µM; with rhesus serum albumin [4], 1.47 µM. Also, in the experiment with rat serum albumin [5], the binding result is recorded as “no binding”.

B2: Rh34-H5 (VHH)
VHH: B1 VHH with E1Q, Q39R, S49A, S75A, L79V
Turning to B2, the equilibrium dissociation constant (Kd) with human serum albumin [1] was 0.524 µM; with rhesus serum albumin [2], 1.42 µM; with human serum albumin [3], 0.41 µM; with rhesus serum albumin [4], 0.589 µM. Besides, the binding result with rat serum albumin [5] is “no binding”.

B3: R11-H1 (VHH)
VHH: EVQLVESGGGLVQPGGSLRLSCAASGFLLRSNTMGWYRQAPGKGLELVSFIRPSGLTNYNDAVQGRFTISRDNSKNTLYLQMNSLRAEDTAVYYCATRPPFQRDSWGQGTLVTVSS
As for B3, the binding result with rhesus serum albumin [4] and with rat serum albumin [5] was “no binding” throughout.

B4: R11-H5 (VHH)
VHH: B3 VHH with E1Q, A24G, S25P, G44E, L45R, S49A, A96H
For the molecule B4, the dissociation constant (Kd) in the experiment with human serum albumin [1] worked out at 0.0982 µM; with rhesus serum albumin [2], 0.525 µM; with rat serum albumin [6] it was 0.16 µM; in the experiment with human serum albumin [3] it was 0.307 µM; with rhesus serum albumin [4] it was 0.643 µM; with rat serum albumin [5], 0.196 µM.

B5: R11-H6 (VHH)
VHH: B3 VHH with E1Q, A24G, S25P, G44E, L45R, S49A, S74A, L78V, A96H
Regarding B5, the equilibrium dissociation constant (Kd) in the experiment with human serum albumin [1] worked out at 0.0675 µM; with rhesus serum albumin [2] it was 0.511 µM; with rat serum albumin [6], 0.123 µM; in the experiment with human serum albumin [3] it was 0.252 µM; with rhesus serum albumin [4], 0.561 µM; in the experiment with rat serum albumin [5], 0.151 µM.

B6: R11-H2 (VHH)
VHH: B3 VHH with A96H
For B6, the binding result in the experiment with human serum albumin [3], with rhesus serum albumin [4] and with rat serum albumin [5] was “no binding” throughout.

B7: Rh34-H4 (VHH)
VHH: QVQLVESGGGLVQPGGSLRLSCAASGRTISLYAVGWFRRAPGKEREFVAAISWTDSSTYYADSVKGRFTISRDNSKNTLYLQMNSLRAEDTAVYYCAADVSIRGLQKYEYDYWGQGTLVTVSS
With B7, the Kd is 0.974 µM with human serum albumin [1], 2.25 µM with rhesus serum albumin [2], 0.647 µM in the experiment with human serum albumin [3] and 0.739 µM with rhesus serum albumin [4]. The binding result with rat serum albumin [5] was “no binding”.

B8: Rh34-H1 (VHH)
VHH: B7 VHH with Q1E, R39Q, E44G, R45L, A49S
For the molecule B8, the Kd with human serum albumin [1] stood at 1.56 µM; in the experiment with rhesus serum albumin [2] it was 1.92 µM; in the experiment with human serum albumin [3], 0.824 µM; with rhesus serum albumin [4], 1.35 µM. Moreover, the binding result with rat serum albumin [5] is recorded as “no binding”.

B9: Rh34-H3 (VHH)
VHH: B7 VHH with R39Q
B9: the Kd was found to be 2.31 µM with human serum albumin [1], 1.81 µM with rhesus serum albumin [2], 1.37 µM with human serum albumin [3] and 1.26 µM in the experiment with rhesus serum albumin [4]. Also, the binding result with rat serum albumin [5] is listed as “no binding”.

B10: H18-H4 (VHH)
VHH: QVQLVESGGGLVQPGGSLRLSCAASGSIESINRMAWYRQAPGQQREFVARISKGGSTNYPDSVKGRFTISRDNSKNTLYLQMNSLRAEDTAVYYCAAGPVWEQFWGQGTLVTVSS
For B10, the Kd with human serum albumin [1] is 0.0571 µM; in the experiment with rhesus serum albumin [2], 0.0727 µM; with human serum albumin [3], 0.0586 µM; in the experiment with rhesus serum albumin [4] it was 0.0344 µM. Also, the binding result with rat serum albumin [5] was “no binding”.

B11: H18-H1 (VHH)
VHH: B10 VHH with Q1E, Q43K, Q44G, R45L, A49S
For the molecule B11, the Kd stood at 0.0563 µM in the experiment with human serum albumin [1], 0.0922 µM with rhesus serum albumin [2], 0.0528 µM with human serum albumin [3] and 0.0915 µM with rhesus serum albumin [4]. Besides, the binding result with rat serum albumin [5] is “no binding”.

B12: H18-H3 (VHH)
VHH: B10 VHH with Q43K
In the case of B12, the Kd in the experiment with human serum albumin [1] was 0.0223 µM; with rhesus serum albumin [2] it was 0.0576 µM; in the experiment with human serum albumin [3], 0.0191 µM; in the experiment with rhesus serum albumin [4], 0.0382 µM. Further, the binding result in the experiment with rat serum albumin [5] is “no binding”.

B13: H18-H5 (VHH)
VHH: B10 VHH with S74A, L78V
For B13, the Kd with human serum albumin [1] worked out at 0.0466 µM; with rhesus serum albumin [2], 0.0707 µM; with human serum albumin [3] it was 0.0594 µM; in the experiment with rhesus serum albumin [4] it was 0.0917 µM. Also, the binding result with rat serum albumin [5] is reported as “no binding”.

B14: R28-H2 (VHH)
VHH: EVQLVESGGGLVQPGGSLRLSCAASGRTFIAYAMGWFRQAPGKEREFVSAITNFAGGTTYYADSVKGRFTISRDNSKNTLYLQMNSLRAEDTAVYYCAADRSAQTMRQVRPVLPYWGQGTLVTVSS
For the molecule B14, the dissociation constant (Kd) in the experiment with human serum albumin [1] was 0.0066 µM; with rhesus serum albumin [2], 0.668 µM; with rat serum albumin [6], 0.001 µM; in the experiment with human serum albumin [3] it was 0.147 µM; with rhesus serum albumin [4] it was 2.63 µM; with rat serum albumin [5], 0.0041 µM.

B15: R28-H4 (VHH)
VHH: B14 VHH with E1Q, S49A, S76A, N78T
Regarding B15, the Kd in the experiment with human serum albumin [1] is 0.0516 µM; with rhesus serum albumin [2], 0.341 µM; with rat serum albumin [6], 0.0053 µM; with human serum albumin [3], 0.0115 µM; with rhesus serum albumin [4] it was 1.74 µM; with rat serum albumin [5], 0.0011 µM.

B16: R28-H3 (VHH)
VHH: B14 VHH with E1Q, S49A
As for B16, the dissociation constant (Kd) is 0.0472 µM in the experiment with human serum albumin [1]; 1.27 µM with rhesus serum albumin [2]; 0.0018 µM with rat serum albumin [6]; 0.0513 µM with human serum albumin [3]; 0.625 µM with rhesus serum albumin [4]; 0.0024 µM with rat serum albumin [5].

B17: M75-H4 (VHH)
VHH: QVQLVESGGGLVQPGGSLRLSCAASGRTFDNYVMAWFRQAPGKEREFVASISGSGSITNYANSVKDRFTISRDSSKNALYLQMNSLRAEDTAVYYCAAGSRRTYYREPKFYPSWGQGTLVTVSS
Turning to B17, the results for the Kd in the experiment with human serum albumin [3], with rhesus serum albumin [4] and in the experiment with rat serum albumin [5] were 0.0028 µM, 0.0067 µM and 0.377 µM, respectively.

B18: M75-H3 (VHH)
VHH: B17 VHH with S74N, A78T
Regarding B18, the Kd in the experiment with human serum albumin [3] was determined as 0.0048 µM; with rhesus serum albumin [4] it was 0.0177 µM; with rat serum albumin [5], 1.26 µM.

B19: M75-H2 (VHH)
VHH: B17 VHH with Q1E, A49S, S74N, A78T
As for B19, the equilibrium dissociation constant (Kd) with human serum albumin [3] came to 0.0078 µM; in the experiment with rhesus serum albumin [4], 0.0636 µM; with rat serum albumin [5], 2.49 µM.

B20: M75-H5 (VHH)
VHH: B17 VHH with S75A, L79I
On to B20, for which the Kd with human serum albumin [3] came to 0.0021 µM; with rhesus serum albumin [4], 0.0046 µM; with rat serum albumin [5] it was 0.0624 µM.

B21: M75-H1 (VHH)
VHH: B17 VHH with Q1E, E44G, R45L, A49S, S74N, A78T
Take B21: the results for the dissociation constant Kd with human serum albumin [3], with rhesus serum albumin [4] and with rat serum albumin [5] were 0.0032 µM, 0.0061 µM and 0.659 µM, respectively.

B22: Rh46-H4 (VHH)
VHH: QVQLVESGGGLVQPGGSLRLSCAASTRTFSSYIMGWFRQAPGKERELVAAISWSGRMTHYADSVKGRFTISRDNSKNTLYLQMNSLRAEDTAIYSCAADRTTAWGAPRSQYDSWGQGTLVTVSS
Take B22: the Kd in the experiment with human serum albumin [1] worked out at 0.0515 µM; in the experiment with rhesus serum albumin [2], 0.0252 µM; with human serum albumin [3], 0.237 µM; with rhesus serum albumin [4] it was 0.405 µM. Also, in the experiment with rat serum albumin [5], the binding result is “no binding”.

B23: Rh46-H3 (VHH)
VHH: B22 VHH with I93V, S95Y
Take B23: the Kd with human serum albumin [1] was 0.0703 µM; with rhesus serum albumin [2], 0.034 µM; with human serum albumin [3], 0.289 µM; in the experiment with rhesus serum albumin [4] it was 0.415 µM. Moreover, in the experiment with rat serum albumin [5], the binding result was “no binding”.

B24: Rh46-H5 (VHH)
VHH: B22 VHH with S75A, L79V
Consider B24, for which the Kd with human serum albumin [1] was found to be 0.0549 µM; with rhesus serum albumin [2], 0.0241 µM; with human serum albumin [3] it was 0.233 µM; with rhesus serum albumin [4] it was 0.343 µM. In addition, the binding result with rat serum albumin [5] is “no binding”.

B25: Rh46-H1 (VHH)
VHH: B22 VHH with Q1E, E44G, R45L, A49S, I93V, S95Y
As to B25, the equilibrium dissociation constant (Kd) in the experiment with human serum albumin [1] is 0.0977 µM; in the experiment with rhesus serum albumin [2], 0.0408 µM; with human serum albumin [3], 0.583 µM; with rhesus serum albumin [4], 0.707 µM. Further, in the experiment with rat serum albumin [5], the binding result was “no binding”.

B26: Rh46-H2 (VHH)
VHH: EVQLVESGGGLVQPGGSLRLSCAASTRTFSSYIMGWFRQAPGKERELVSAISWSGRMTHYADSVKGRFTISRDNSKNTLYLQMNSLRAEDTAVYYCAADRTTAWGAPRSQYDSWGQGTLVTVS
As for B26, the Kd in the experiment with human serum albumin [1] was found to be 0.0873 µM; with rhesus serum albumin [2], 0.0441 µM; in the experiment with human serum albumin [3], 0.426 µM; in the experiment with rhesus serum albumin [4], 0.456 µM. Also, in the experiment with rat serum albumin [5], the binding result is on record as “no binding”.

Values taken from patent US20210253679A1 (NATIONAL RESEARCH COUNCIL OF CANADA, published 2021).
